From patent publication US20160209426A1 (Genentech, published 2016)

Molecular target: T1, integrin alphaEbeta7 (human, UniProt P38570 19-1179; P26010 20-798)
T1 construct: whole, on cells; In the occupancy experiments it stood on T lymphocytes from patients' colonic biopsies; also called αEβ7; αEβ7 receptor
Assay: flow cytometry on CD45+CD3+CD4- T lymphocytes from a pre-dose colonic biopsy
Experimental: Etrolizumab binds the β7 subunits of the heterodimeric integrins α4β7 and αEβ7. While α4β7 is expressed on leukocyte subsets in both blood and mucosal tissue, αEβ7 is primarily confined to intraepithelial lymphocytes and dendritic cells in mucosal tissue. Therefore, to evaluate the pharmacology and mechanism of action of etrolizumab at the site of action as well as in circulation, colonic tissue was assessed in addition to peripheral blood. Colonic tissue biopsies were collected using standard surgical procedures from 23 consented, study-enrolled patients at pre-dose (screen) and at certain post dose time points (day 43 and day 71). […]
Similar to the flow cytometry assay conducted on peripheral blood cells, occupancy of β7 integrin receptors on colonic tissue T lymphocyte subsets was assessed by staining with fluorescently labeled (PE label) FIB504, while expression of β7 integrin receptors was evaluated using fluorescently labeled 9D8 (PE label). […] Samples were then acquired on a BD FACS Cantoll™ or a BD FACSCalibur™ (BD Biosciences, San Jose, Calif. USA) and analyzed by gating on subsets of αEβ7-expressing and α4β7-expressing CD3+CD45+, αEβ7-expressing and α4β7-expressing CD3+CD4+CD45+, and αEβ7-expressing and α4β7-expressing CD3+CD4-CD45+ T cell subsets. […]

T1 sequence (P38570 19-1179, chain 1 of 2): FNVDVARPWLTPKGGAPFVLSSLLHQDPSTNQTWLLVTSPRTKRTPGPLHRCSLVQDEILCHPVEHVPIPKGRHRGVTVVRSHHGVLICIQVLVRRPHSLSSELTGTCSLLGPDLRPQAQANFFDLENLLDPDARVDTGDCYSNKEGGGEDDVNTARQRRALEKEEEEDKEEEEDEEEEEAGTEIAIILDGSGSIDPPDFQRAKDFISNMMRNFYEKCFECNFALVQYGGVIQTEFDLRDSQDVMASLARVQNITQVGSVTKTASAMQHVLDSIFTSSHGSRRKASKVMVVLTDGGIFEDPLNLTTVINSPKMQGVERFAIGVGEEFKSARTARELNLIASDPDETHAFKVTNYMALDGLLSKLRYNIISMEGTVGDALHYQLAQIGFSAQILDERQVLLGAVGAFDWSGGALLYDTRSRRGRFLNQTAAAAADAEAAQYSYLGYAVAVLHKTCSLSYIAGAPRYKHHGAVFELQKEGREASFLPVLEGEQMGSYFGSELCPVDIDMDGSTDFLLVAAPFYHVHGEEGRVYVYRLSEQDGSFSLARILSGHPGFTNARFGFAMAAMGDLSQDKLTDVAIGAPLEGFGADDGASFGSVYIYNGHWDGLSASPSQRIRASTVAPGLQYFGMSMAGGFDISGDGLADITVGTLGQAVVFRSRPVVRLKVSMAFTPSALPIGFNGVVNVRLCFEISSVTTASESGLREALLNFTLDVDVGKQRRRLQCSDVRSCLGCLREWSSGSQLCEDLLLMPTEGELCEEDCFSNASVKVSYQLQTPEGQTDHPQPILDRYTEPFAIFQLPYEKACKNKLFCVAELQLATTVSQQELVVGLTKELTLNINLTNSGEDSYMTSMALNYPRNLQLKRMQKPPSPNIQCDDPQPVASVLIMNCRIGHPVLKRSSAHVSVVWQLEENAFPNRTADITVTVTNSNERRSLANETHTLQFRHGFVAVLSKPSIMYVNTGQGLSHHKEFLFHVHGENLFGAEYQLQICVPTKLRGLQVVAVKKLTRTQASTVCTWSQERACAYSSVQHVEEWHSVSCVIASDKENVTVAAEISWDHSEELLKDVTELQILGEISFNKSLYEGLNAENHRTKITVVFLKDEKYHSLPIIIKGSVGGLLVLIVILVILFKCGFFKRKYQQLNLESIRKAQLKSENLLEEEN
T1 sequence (P26010 20-798, chain 2 of 2): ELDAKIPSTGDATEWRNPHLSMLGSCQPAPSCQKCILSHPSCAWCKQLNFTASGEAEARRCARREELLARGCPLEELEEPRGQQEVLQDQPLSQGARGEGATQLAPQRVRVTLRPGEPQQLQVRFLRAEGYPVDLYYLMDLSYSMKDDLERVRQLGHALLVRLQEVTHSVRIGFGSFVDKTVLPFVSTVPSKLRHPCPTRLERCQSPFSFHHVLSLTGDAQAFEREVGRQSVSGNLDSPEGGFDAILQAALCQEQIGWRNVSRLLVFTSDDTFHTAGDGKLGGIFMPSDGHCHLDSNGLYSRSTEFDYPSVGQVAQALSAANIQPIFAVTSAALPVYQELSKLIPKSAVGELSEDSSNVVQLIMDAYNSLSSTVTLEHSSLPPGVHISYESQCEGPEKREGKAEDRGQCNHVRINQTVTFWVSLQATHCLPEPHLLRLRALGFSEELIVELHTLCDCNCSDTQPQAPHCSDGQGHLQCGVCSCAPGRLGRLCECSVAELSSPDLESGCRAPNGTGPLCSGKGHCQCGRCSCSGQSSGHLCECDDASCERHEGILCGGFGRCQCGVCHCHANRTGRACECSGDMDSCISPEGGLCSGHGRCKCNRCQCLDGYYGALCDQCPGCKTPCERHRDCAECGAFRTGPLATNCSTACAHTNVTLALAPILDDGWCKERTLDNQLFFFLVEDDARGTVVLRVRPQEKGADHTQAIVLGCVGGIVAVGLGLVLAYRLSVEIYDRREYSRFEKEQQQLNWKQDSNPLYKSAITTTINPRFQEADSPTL

B1: FIB504 (rat anti-mouse/human beta7 monoclonal antibody), fluorescently labeled (antibody, V domains shown)
VH: EVQLQESGPGLVKPSQSLSLTCSVTGFFITNNYWGWIRKFPGNKMEWMGYISYSGSTSYNPSLKSRISITRDTSKNQFFLQLNSVTTEDTATYYCAMTGSSGYFDFWGPGTMVTVSS
VL: DVVMTQSPATLSVTPGERISLSCRASESVDTYLHWYQQKPNESPRLLIKYASQSISGIPSRFSGSGSGTDFTLSINGVELEDLSIYYCQQGNSLPNTFGAGTKLELKR
notes: Bought reagent (BD Biosciences), fluorescently labeled (PE label for colonic tissue)
binding result: binds
